Measured values: patent US20240117030A1 (Pfizer, published 2024)

T1: human IL-4 (human, UniProt P05112 25-153)
T1 sequence (looked up): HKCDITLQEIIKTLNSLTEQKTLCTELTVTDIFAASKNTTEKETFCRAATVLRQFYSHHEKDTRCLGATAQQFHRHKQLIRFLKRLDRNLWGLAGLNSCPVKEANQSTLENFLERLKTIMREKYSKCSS

T2: recombinant human IL-33 (wild type, Ser112-Thr270) (human, UniProt O95760 112-270)
T2 sequence (looked up): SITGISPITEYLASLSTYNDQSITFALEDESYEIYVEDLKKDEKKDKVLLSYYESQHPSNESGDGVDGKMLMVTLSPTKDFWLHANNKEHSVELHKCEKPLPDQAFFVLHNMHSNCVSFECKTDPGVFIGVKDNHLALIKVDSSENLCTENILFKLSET

B1: IL13433-0006 (other)
heavy: EVQLVESGGGLVQPGGSLRLSCAASGFTFSSYAMSWVRQAPGKGLEWVASISSGDTTYYPDSVKGRFTISRDNAKNSLYLQMNSLRAEDTAVYYCARNEGYYFGLTLWGQGTLVTVSSASTKGPSVFPKAPSSKSTSGGTAALGCLVKDYFPEPVTVSWNSGALTSGVHTFPAVLQSSGLYSLSSSVTVPSSSLGTQTYICNVNHKPSNTKVDKKVEPKSCDKTHTCPPCPAPEAAGAPSVFLFPPKPKDTLMISRTPEVTCVVVDVSHEDPEVKFNWYVDGVEVHNAKTKPREEQYNSTYRVVSVLTVLHQDWLNGKEYKCKVSNKALPAPIEKTISKAKGQPREPQVCTLPPSREEMTKNQVSLWCLVKGFYPSDIAVEWESNGQPENNYKTTPPVLDSDGSFFLYSKLTVDKSRWQQGNVFSCSVMHEALHNHYTQKSLSLSPGK
chain 1: DIQMTQSPSSLSASVGDRVTITCKASQNINKHLDWYQQKPGKAPKLLIYFTNNLQTGVPSRFSGSGSGTDFTLTISSLQPEDFATYYCFQYNQGWTFGGGTKVEIKRTVAAPSVFIFPPSDEQLKSGTASVVCLLNNFYPREAKVQWKVDNALQSGNSQESVTEQDSKDSTYSLSSTLTLSKADYEKHKVYACEVTHQGLSSPVTKSFNRGECGGGGSEVTLRESGPALVKPTQTLTLTCTFSGFSLSNFGEGLSWIRQPPGKGLEWLAHIYWDDDKRYNPSLKSRLTISKDTSRNQVVLTMTNMDPVDTATYYCARRETVFYWYFDVWGQGTTVTVSSASTKGPSVFPEAPSSKSTSGGTAALGCLVKDYFPEPVTVSWNSGALTSGVHTFPAVLQSSGLYSLGSVVTVPSSSLGTQTYICNVNHKPSNTKVDKKVEPKSCDKTHTCPPCPAPEAAGAPSVFLFPPKPKDTLMISRTPEVTCVVVDVSHEDPEVKFNWYVDGVEVHNAKTKPREEQYNSTYRVVSVLTVLHQDWLNGKEYKCKVSNKALPAPIEKTISKAKGQPREPQVYTLPPCREEMTKNQVSLSCAVKGFYPSDIAVEWESNGQPENNYKTTPPVLDSDGSFFLVSKLTVDKSRWQQGNVFSCSVMHEALHNHYTQKSLSLSPGK
light 1: DIQMTQSPSSLSASVGDRVTITCKASESVDHFGWSLVHWYQQKPGKAPKLLIYRASNLESGVPSRFSGSGSGTDFTLTISSLQPEDFATYYCQQSNEDPWTFGGGTKVEIKRTVAAPSVFIFPPSDEQLKSGTASVSCLLNNFYPREAKVQWKVDNALQSGNSQESVTEQDSKDSTYSLDSTLTLSKADYEKHKVYACEVTHQGLSSPVTKSFNRGEC
light 2: DIQMTQSPSSLSASVGDRVTITCKASQSVDEDGDSYMNWYQQKPGKAPKLLIYAASNLESGVPSRFSGSGSGTDFTLTISSLQPEDFATYYCQQSNEDPPTFGGGTKVEIKRTVAAPSVFIFPPSDEQLKSGTASVSCLLNNFYPREAKVQWKVDNALQSGNSQESVTEQDSKDSTYSLKSTLTLSKADYEKHKVYACEVTHQGLSSPVTKSFNRGEC
chain 2: EVQLVESGGGLVQPGGSLRLSCAASGFTFSSYWMYWVRQAPGKGLEWVAAITPNAGEDYYPESVKGRFTISRDNAKNSLYLQMNSLRAEDTAVYYCARGHYYYTSYSLGYWGQGTLVTVSSASTKGPSVFPLAPSSKSTSGGTAALGCLVKDYFPEPVTVSWNSGALTSGVHTFPAVLQSSGLYSLSSVVTVPSSSLGTQTYICNVNHKPSNTKVDKKVEPKSC
B2: IL13433-1270 (other)
heavy: EVQLVESGGGLVQPGGSLRLSCAASGFTFSSYWMYWVRQAPGKGLEWVAAITPNAGEDYYPESVKGRFTISRDNAKNSLYLQMNSLRAEDTAVYYCARGQYYYTKYSLGYWGQGTLVTVSSASTKGPSVFPKAPSSKSTSGGTAALGCLVKDYFPEPVTVSWNSGALTSGVHTFPAVLQSSGLYSLSSSVTVPSSSLGTQTYICNVNHKPSNTKVDKKVEPKSCDKTHTCPPCPAPEAAGAPSVFLFPPKPKDTLMISRTPEVTCVVVDVSHEDPEVKFNWYVDGVEVHNAKTKPREEQYNSTYRVVSVLTVLHQDWLNGKEYKCKVSNKALPAPIEKTISKAKGQPREPQVCTLPPSREEMTKNQVSLWCLVKGFYPSDIAVEWESNGQPENNYKTTPPVLDSDGSFFLYSKLTVDKSRWQQGNVFSCSVLHEALHSHYTQKSLSLSPGK
chain 1: DIQMTQSPSSLSASVGDRVTITCKASESVDHFGWSLVHWYQQKPGKAPKLLIYRASNLESGVPSRFSGSGSGTDFTLTISSLQPEDFATYYCQQSNEDPWTFGGGTKVEIKRTVAAPSVFIFPPSDEQLKSGTASVVCLLNNFYPREAKVQWKVDNALQSGNSQESVTEQDSKDSTYSLSSTLTLSKADYEKHKVYACEVTHQGLSSPVTKSFNRGECGGGGSEVTLRESGPALVKPTQTLTLTCTFSGFSLSNFGEGLSWIRQPPGKGLEWLAHIYWDDDKRYNPSLKSRLTISKDTSRNQVVLTMTNMDPVDTATYYCARRETVFYWYFDVWGQGTTVTVSSASTKGPSVFPEAPSSKSTSGGTAALGCLVKDYFPEPVTVSWNSGALTSGVHTFPAVLQSSGLYSLGSVVTVPSSSLGTQTYICNVNHKPSNTKVDKKVEPKSCDKTHTCPPCPAPEAAGAPSVFLFPPKPKDTLMISRTPEVTCVVVDVSHEDPEVKFNWYVDGVEVHNAKTKPREEQYNSTYRVVSVLTVLHQDWLNGKEYKCKVSNKALPAPIEKTISKAKGQPREPQVYTLPPCREEMTKNQVSLSCAVKGFYPSDIAVEWESNGQPENNYKTTPPVLDSDGSFFLVSKLTVDKSRWQQGNVFSCSVLHEALHSHYTQKSLSLSPGK
light 1: DIQMTQSPSSLSASVGDRVTITCRASQPIHNHLDWYQQKPGKAPKLLIYFGKNLQEGVPSRFSGSGSGTDFTLTISSLQPEDFATYYCFQYKKGWSFGGGTKVEIKRTVAAPSVFIFPPSDEQLKSGTASVSCLLNNFYPREAKVQWKVDNALQSGNSQESVTEQDSKDSTYSLDSTLTLSKADYEKHKVYACEVTHQGLSSPVTKSFNRGEC
light 2: DIQMTQSPSSLSASVGDRVTITCRASQSVDEEGDSYMNWYQQKPGKAPKLLIYAASNLESGVPSRFSGSGSGTDFTLTISSLQPEDFATYYCQQSNKDPPTFGGGTKVEIKRTVAAPSVFIFPPSDEQLKSGTASVSCLLNNFYPREAKVQWKVDNALQSGNSQESVTEQDSKDSTYSLKSTLTLSKADYEKHKVYACEVTHQGLSSPVTKSFNRGEC
chain 2: EVQLVESGGGLVQPGGSLRLSCAASGFTFSSYAMSWVRQAPGKGLEWVASISSGDTTYYPDSVKGRFTISRDNAKNSLYLQMNSLRAEDTAVYYCARNEGYYFGLTLWGQGTLVTVSSASTKGPSVFPLAPSSKSTSGGTAALGCLVKDYFPEPVTVSWNSGALTSGVHTFPAVLQSSGLYSLSSVVTVPSSSLGTQTYICNVNHKPSNTKVDKKVEPKSC

What was measured:
Assay in all cases: cell-based or functional assay
human IL-4 = target: T1, human IL-4
[1] = target: T2, recombinant human IL-33 (wild type, …)
human IL-13 = human IL-13 (human, UniProt P35225 35-146)
Chain of human IL-13 (P35225 35-146 limits assumed): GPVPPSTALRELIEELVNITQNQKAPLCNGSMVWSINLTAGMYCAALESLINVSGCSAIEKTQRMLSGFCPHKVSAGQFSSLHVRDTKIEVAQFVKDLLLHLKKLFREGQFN

Binder | a-hIL-4 bioassay IC50, pM) (human IL-4) | a-IL-33 bioassay (WT IL33) IC50 (pM) [1] | a-hIL-13 bioassay (IC50, pM) (human IL-13)
B1 | 10.3 pM | 112 pM | 9.01 pM
B2 | 16.5 pM | 12 pM | 7.58 pM
